Assay results reported in patent publication US20050100897A1, “NFAT transcription factors in tumor progression” (priority 2002, published 2005).

What was measured:
Type in all cases: cell-based, human
[1] = tested on: MDA-MB-435 β4+-expressing cells (3A7); test: Matrigel chemoinvasion assay, MDA-MB-435 β4+ transfectants; conditions: transient transfection; NIH 3T3 conditioned media as chemoattractant
Description: Following the transfection protocol, the ability of the transfected cells to invade Matrigel was assayed. The data are shown as the relative invasion of NFAT transfected cells compared to vector alone-transfected cells (100%). The data shown are mean values (±SEM) of 2 experiments performed in triplicate.
(§1) Invasion assays were performed using standard methods (see Shaw et al., Cell 91:949-960, 1997) using Transwell chambers coated with Matrigel. Briefly, cells were co-transfected with the indicated NFAT constructs, 1 μg EGFP-N1 (Clontech) and 1 μg pCS2-(n)β-Gal, a •gal expression vector (Dave Turner, University of Michigan) using the Lipofectamine procedure (Life Technologies), and after twenty-four hours, the cells were resuspended in serum-free medium containing 0.1% bovine serum albumin (BSA) and added to each well. […] Cells that stained positive for β-galactosidase expression were counted, and the mean of triplicate assays for each experimental condition was used as % relative invasion.

[2] = tested on: Clone A colon cancer cell line; test: Matrigel chemoinvasion assay, Clone A cells; conditions: transient transfection
Description: as §1

MDA-MB-231 cells = test: Matrigel chemoinvasion assay, MDA-MB-231 cells; conditions: transient transfection
Excerpt: FIGS. 3A-3C show the role of NFAT-5 in mediating carcinoma invasion. FIG. 3A is a graph showing luciferase levels in MDA-MB-435 cells expressing vector alone, β4.ΔCYT (3C12), or wild-type β4^+ (3A7 clone) that were transiently transfected with an NFAT-5-luciferase reporter construct (NFAT-5-luc). Luciferase activity is shown as relative luciferase units. […] The lysates were resolved by SDS PAGE and immunoblotted with anti-NFAT-5 (α-NFAT-5, top panel) or anti-p85 (α-p85, bottom panel) The position of the 175 kDa and 90 kDa markers are indicated (left). […] The ability of the transfected cells to invade Matrigel was then assayed and the data are shown as the relative invasion of NFAT-5-transfected cells compared to vector alone-transfected cells (100%).
Invasion assays were performed using standard methods (see Shaw et al., Cell 91:949-960, 1997) using Transwell chambers coated with Matrigel. […] Cells that stained positive for β-galactosidase expression were counted, and the mean of triplicate assays for each experimental condition was used as % relative invasion. […]

[3] = tested on: NFAT-5 transcriptional activity; test: NFAT-5-luc luciferase reporter assay in MDA-MB-435 β4+ (3A7) cells; conditions: co-transfected with dominant negative NFAT-5 (GFP-ND5)
Description: FIGS. 4A-4D are graphs showing that NFAT-5 transcriptional activity is induced in an α6β4-dependent manner. FIG. 4A is a graph showing NFAT-5 transcriptional activity in control parental cells, β4 (3A7), and β4.ΔCYT (3C12) MDA-MB-435 transfectants that were transiently transfected with NFAT-5-luc. The cells were grown in complete media for twenty-four hours, trypsinized, incubated with anti-α6 (clone 135-13C) for 30 minutes, then plated onto secondary antibody-coated plates, either in the presence (+) or absence (−) of NIH 3T3 conditioned medium (CM), for twenty-four hours. As a positive control, cells were also stimulated with PMA (phorbol 12-myristate 13-acetate) and ionomycin (100 nM each) for twenty-four hours. Following stimulation, cells were lysed and NFAT-5 transcriptional activity was assayed. […] NFAT-5 transcriptional activity was measured as described above. […] NFAT-5 transcriptional activity was measured as described above. […]
Cells were transiently co-transfected with an NFAT luciferase reporter construct (NFAT-luc, 10 μg) and 1 μg pCS2-(n)β-gal using the Lipofectamine procedure (Life Technologies). Twenty-four hours after the transfection, luciferase and beta-galactosidase assays were performed using standard assays on total cell lysates and measured on a luminometer. […]

B1: ND5: dominant negative NFAT-5 mutant, amino acids 1-471 (SEQ ID NO:17) of NFAT5a; blocks dimerization of endogenous NFAT-5 (protein, listed as Homo sapiens)
chain: MGGACSSFTTSSSPTIYSTSVTDSKAMQVESCSSAVGVSNRGVSEKQLTSNTVQQHPSTPKRHTVLYISPPPEDLLDNSRMSCQDEGCGLESEQSCSMWMEDSPSNFSNMSTSSYNDNTEVPRKSRKRNPKQRPGVKRRDCEESNMDIFDADSAKAPHYVLSQLTTDNKGNSKAGNGTLENQKGTGVKKSPMLCGQYPVKSEGKELKIVVQPETQHRARYLTEGSRGSVKDRTQQGFPTVKLEGHNEPVVLQVFVGNDSGRVKPHGFYQACRVTGRNTTPCKEVDIEGTTVIEVGLDPSNNMTLAVDCVGILKLRNADVEARIGIAGSKKKSTRARLVFRVNIMRKDGSTLTLQTPSSPILCTQPAGVPEILKKSLHSCSVKGEEEVFLIGKNFLKGTKVIFQENVSDENSWKSEAEIDMELFHQNHLIVKVPPYHDQHITLPVSVGIYVVTNAGRSHDVQPFTYTPDPAA
carcinoma invasion (relative invasion vs vector alone) [1]: significantly inhibited invasion | carcinoma invasion (relative invasion vs vector alone) [2]: significantly inhibited invasion | carcinoma invasion (relative invasion vs vector alone) (MDA-MB-231 cells): significantly inhibited invasion | co-stimulated NFAT-5 transcriptional activity (α6β4 + conditioned media, or PMA/ionomycin) [3]: inhibited
